Reference: PMC7196576, “Structural changes of a bacteriophage upon DNA packaging and maturation” (Protein & Cell, 2020)

B1: portal protein gp8 of bacteriophage T7 (natural protein, Escherichia coli bacteriophage T7, UniProt P03728 1-536, looked up)
chain: MAEKRTGLAEDGAKSVYERLKNDRAPYETRAQNCAQYTIPSLFPKDSDNASTDYQTPWQAVGARGLNNLASKLMLALFPMQTWMRLTISEYEAKQLLSDPDGLAKVDEGLSMVERIIMNYIESNSYRVTLFEALKQLVVAGNVLLYLPEPEGSNYNPMKLYRLSSYVVQRDAFGNVLQMVTRDQIAFGALPEDIRKAVEGQGGEKKADETIDVYTHIYLDEDSGEYLRYEEVEGMEVQGSDGTYPKEACPYIPIRMVRLDGESYGRSYIEEYLGDLRSLENLQEAIVKMSMISSKVIGLVNPAGITQPRRLTKAQTGDFVTGRPEDISFLQLEKQADFTVAKAVSDAIEARLSFAFMLNSAVQRTGERVTAEEIRYVASELEDTLGGVYSILSQELQLPLVRVLLKQLQATQQIPELPKEAVEPTISTGLEAIGRGQDLDKLERCVTAWAALAPMRDDPDINLAMIKLRIANAIGIDTSGILLTEEQKQQKMAQQSMQMGMDNGAAALAQGMAAQATASPEAMAAAADSVGLQPGI
notes: portal protein gp8, Escherichia coli bacteriophage T7; domains clip (294-334), stem (335-356 and 269-293), wing (1-268, 357-427), crown (428-492), C-terminal helical barrel; Native protein in the virion; dodecamer at one vertex; The C-terminal barrel is not seen in capsid II; also called T7 portal; source: in mature T7 phage and T7 capsid II particles purified from cells; copies: 12
B2: adaptor protein gp11 of bacteriophage T7 (natural protein, Escherichia coli bacteriophage T7, UniProt P03746 1-196, looked up)
chain: MRSYDMNVETAAELSAVNDILASIGEPPVSTLEGDANADAANARRILNKINRQIQSRGWTFNIEEGITLLPDVYSNLIVYSDDYLSLMSTSGQSIYVNRGGYVYDRTSQSDRFDSGITVNIIRLRDYDEMPECFRYWIVTKASRQFNNRFFGAPEVEGVLQEEEDEARRLCMEYEMDYGGYNMLDGDAFTSGLLTR
notes: adaptor protein gp11, Escherichia coli bacteriophage T7; Native protein in the virion; dodecameric ring; also called tail adaptor; source: in mature T7 phage purified from cells; copies: 12
B3: nozzle protein gp12 of bacteriophage T7 (natural protein, Escherichia coli bacteriophage T7, UniProt P03747 1-794, looked up)
chain: MALISQSIKNLKGGISQQPDILRYPDQGSRQVNGWSSETEGLQKRPPLVFLNTLGDNGALGQAPYIHLINRDEHEQYYAVFTGSGIRVFDLSGNEKQVRYPNGSNYIKTANPRNDLRMVTVADYTFIVNRNVVAQKNTKSVNLPNYNPNQDGLINVRGGQYGRELIVHINGKDVAKYKIPDGSQPEHVNNTDAQWLAEELAKQMRTNLSDWTVNVGQGFIHVTAPSGQQIDSFTTKDGYADQLINPVTHYAQSFSKLPPNAPNGYMVKIVGDASKSADQYYVRYDAERKVWTETLGWNTEDQVLWETMPHALVRAADGNFDFKWLEWSPKSCGDVDTNPWPSFVGSSINDVFFFRNRLGFLSGENIILSRTAKYFNFYPASIANLSDDDPIDVAVSTNRIAILKYAVPFSEELLIWSDEAQFVLTASGTLTSKSVELNLTTQFDVQDRARPFGIGRNVYFASPRSSFTSIHRYYAVQDVSSVKNAEDITSHVPNYIPNGVFSICGSGTENFCSVLSHGDPSKIFMYKFLYLNEELRQQSWSHWDFGENVQVLACQSISSDMYVILRNEFNTFLARISFTKNAIDLQGEPYRAFMDMKIRYTIPSGTYNDDTFTTSIHIPTIYGANFGRGKITVLEPDGKITVFEQPTAGWNSDPWLRLSGNLEGRMVYIGFNINFVYEFSKFLIKQTADDGSTSTEDIGRLQLRRAWVNYENSGTFDIYVENQSSNWKYTMAGARLGSNTLRAGRLNLGTGQYRFPVVGNAKFNTVYILSDETTPLNIIGCGWEGNYLRRSSGI
notes: nozzle protein gp12, Escherichia coli bacteriophage T7; Native protein in the virion; hexameric tube; source: in mature T7 phage purified from cells
B4: tail fiber gp17 of bacteriophage T7 (natural protein, Escherichia coli bacteriophage T7, UniProt P03748 1-553, looked up)
chain: MANVIKTVLTYQLDGSNRDFNIPFEYLARKFVVVTLIGVDRKVLTINTDYRFATRTTISLTKAWGPADGYTTIELRRVTSTTDRLVDFTDGSILRAYDLNVAQIQTMHVAEEARDLTTDTIGVNNDGHLDARGRRIVNLANAVDDRDAVPFGQLKTMNQNSWQARNEALQFRNEAETFRNQAEGFKNESSTNATNTKQWRDETKGFRDEAKRFKNTAGQYATSAGNSASAAHQSEVNAENSATASANSAHLAEQQADRAEREADKLENYNGLAGAIDKVDGTNVYWKGNIHANGRLYMTTNGFDCGQYQQFFGGVTNRYSVMEWGDENGWLMYVQRREWTTAIGGNIQLVVNGQIITQGGAMTGQLKLQNGHVLQLESASDKAHYILSKDGNRNNWYIGRGSDNNNDCTFHSYVHGTTLTLKQDYAVVNKHFHVGQAVVATDGNIQGTKWGGKWLDAYLRDSFVAKSKAWTQVWSGSAGGGVSVTVSQDLRFRNIWIKCANNSWNFFRTGPDGIYFIASDGGWLRFQIHSNGLGFKNIADSRSVPNAIMVENE
notes: tail fiber protein gp17, Escherichia coli bacteriophage T7; only the N-terminus (a jelly-roll barrel and a 22-residue alpha-helix) was resolved; Native protein in the virion; six trimers a phage; The distal parts of the fibers were too flexible to be resolved; source: in mature T7 phage purified from cells

Target: the molecule itself
Test: cryo-EM structure; mature T7 phage purified from cells; icosahedral, symmetry-mismatch and local reconstructions (shell 3.5 Å, asymmetric 7 Å, portal-tail complex 3.8 Å, core 6.0 Å)

Protein | stoichiometry N
B1 | 12
B2 | 12
B3 | 6
B4 | 3
